Assay results reported in paper PMC6975927.

Experiments:
[1] = target: SCF^βTRCP (CUL1-RBX1 with full-length βTRCP2 (FBW11)-SKP1 complex) (human) (UniProt Q13616)
[2] = target: SCF^FBW7 (CUL1-RBX1 with FBW7(263-C-terminus)-SKP1 complex) (human) (UniProt Q13616)

UBE2D3, sequence (P61077 whole entry): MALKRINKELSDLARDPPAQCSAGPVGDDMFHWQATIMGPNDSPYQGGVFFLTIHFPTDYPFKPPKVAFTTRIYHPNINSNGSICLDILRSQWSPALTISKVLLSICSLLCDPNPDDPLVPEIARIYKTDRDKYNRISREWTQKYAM

Row | Molecule | KM of UBE2D3 in multi-turnover ubiquitylation of 32P-labeled β-Catenin peptide by SCF^βTRCP [1] [µM] | KM of UBE2D3 in multi-turnover ubiquitylation of 32P-labeled Cyclin E peptide by SCF^FBW7 [2] [µM] | KM of UBE2G1 in multi-turnover ubiquitylation of 32P-labeled mono-ubiquitylated Cyclin E peptide (Ub-Cyclin E) by SCF^FBW7 [2] [µM]
1 | UBE2D3 (from UniProt P61077 1-147) (enzyme) | 0.488 | 1.67 | 
2 | UBE2G1 (enzyme) MTELQSALLLRRQLAELNKNPVEGFSAGLIDDNDLYRWEVLIIGPPDTLYEGGVFKAHLTFPKDYPLRPPKMKFITEIWHPNVDKNGDVCISILHEPGEDKYGYEKPEERWLPIHTVETIMISVISMLADPNGDSPANVDAAKEWREDRNGEFKRKVARCVRKSQETAFE |  |  | 1.3
